Laboratory results: article PMC5818494 (Scientific Reports, 2018)

B1: MBP-JMJD7 fusion protein (with a truncated linker) (enzyme, mouse)
chain: MAEAALEAVRRALQEFPAAARDLNVPRVVPYLDEPPSPLCFYRDWVCPNRPCIIRNALQHWPALQKWSLSYLRATVGSTEVSVAVTPDGYADAVRGDRFVMPAERRLPISHVLDVLEGRAQHPGVLYVQKQCSNLPTELPQLLSDIESHVPWASESLGKMPDAVNFWLGDASAVTSLHKDHYENLYCVVSGEKHFLLHPPSDRPFIPYNLYTPATYQLTEEGTFRVVDEEAMEKVPWIPLDPLAPDLTQYPSYSQAQALHCTVRAGEMLYLPALWFHHVQQSHGCIAVNFWYDMEYDLKYSYFQLMDTLTRATGLD
notes: JMJD7, mouse; Crystallised as the fusion; MBP (PDB 1HSJ) was a search model for molecular replacement
B2: JMJD7 (mouse), JMJD7 protein alone generated from GST-JMJD7 fusion protein (enzyme)
chain: MAEAALEAVRRALQEFPAAARDLNVPRVVPYLDEPPSPLCFYRDWVCPNRPCIIRNALQHWPALQKWSLSYLRATVGSTEVSVAVTPDGYADAVRGDRFVMPAERRLPISHVLDVLEGRAQHPGVLYVQKQCSNLPTELPQLLSDIESHVPWASESLGKMPDAVNFWLGDASAVTSLHKDHYENLYCVVSGEKHFLLHPPSDRPFIPYNLYTPATYQLTEEGTFRVVDEEAMEKVPWIPLDPLAPDLTQYPSYSQAQALHCTVRAGEMLYLPALWFHHVQQSHGCIAVNFWYDMEYDLKYSYFQLMDTLTRATGLD
notes: JMJD7, mouse; The GST-derived, tag-free form is stated for the crystals; also called mJMJD7; GST-free JMJD7

Tests used:
[1] = molecular target: the molecule itself; experiment: crystal structure; MBP-JMJD7 (20 mg/ml), vapor diffusion, 100 mM Citrate Sodium, 20% PEG 3350, 4 °C; in the absence of α-KG; two molecules in one asymmetric unit
[2] = molecular target: the molecule itself; experiment: crystal structure; mJMJD7 (from GST-mJMJD7, tag removed, 10 mg/ml), vapor diffusion, 0.1 M MES monohydrate pH6.0, 10% PEG4000, 4 °C; in the presence of α-KG; two molecules in one asymmetric unit

| Protein | stoichiometry N [1] | stoichiometry N [2] |
| --- | --- | --- |
| B1 | 2 |  |
| B2 |  | 2 |
